Article doi:10.1101/2022.09.20.508729, “Loss of the first β-strand of human prion protein generates an aggregation-competent partially “open” form” (bioRxiv, 2022)

Target: the molecule itself
Test: thioflavin T fluorescence of fibril formation

B1: PrP^23 (residues 23-231 of human PrP) (natural protein)
chain: not shown
notes: also called full-length WT PrP
B1: binds.
